Measured values taken from PMC10371798, “Protein–protein interactions between tenascin-R and RPTPζ/phosphacan are critical to maintain the architecture of perineuronal nets” (The Journal of Biological Chemistry, 2023).
“And” between values parts separate entries of the source, which are not always exact repeats. Identical values can stand only once.

Assays:
Settings in all cases: both partners purified
[1] = molecular target: T1, Fg domain of human tenascin-R (amino acid residues 1129-1358) (human, UniProt Q92752 1129-1358); experiment: BLI; biotinylated FN domain of RPTPζ (250 nM) immobilised on streptavidin tips; Fg domain in solution; room temperature; 150 mM NaCl, 10 mM Na-Hepes pH 7.5, 1 mg/ml BSA, 0.02% Tween-20, 5 mM CaCl2; KD from the signal at equilibrium
T1 construct: tenascin-R (TNR), human, fibrinogen-like (Fg) domain, residues 1129-1358; also called TNR(Fg); source: E. coli Origami 2(DE3), purified (Ni Sepharose, 3C cleavage, HiTrap Heparin, Superdex 200)
T1 sequence (looked up): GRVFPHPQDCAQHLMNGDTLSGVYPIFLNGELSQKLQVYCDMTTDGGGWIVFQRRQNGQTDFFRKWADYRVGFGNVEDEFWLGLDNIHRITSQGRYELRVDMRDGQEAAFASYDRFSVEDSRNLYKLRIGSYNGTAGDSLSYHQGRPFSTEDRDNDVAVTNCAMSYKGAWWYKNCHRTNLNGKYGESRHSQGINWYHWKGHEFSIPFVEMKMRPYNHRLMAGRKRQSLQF

[2] = molecular target: T2, Fg domain of human tenascin-C (amino acid residues 1975-2201) (human, UniProt P24821 1975-2201); experiment: as above
T2 construct: tenascin-C (TNC), human, fibrinogen-like (Fg) domain, residues 1975-2201; also called TNC(Fg); WT TNC; source: E. coli Origami 2(DE3), purified (Ni Sepharose, 3C cleavage, HiTrap Heparin, Superdex 200)
T2 sequence (looked up): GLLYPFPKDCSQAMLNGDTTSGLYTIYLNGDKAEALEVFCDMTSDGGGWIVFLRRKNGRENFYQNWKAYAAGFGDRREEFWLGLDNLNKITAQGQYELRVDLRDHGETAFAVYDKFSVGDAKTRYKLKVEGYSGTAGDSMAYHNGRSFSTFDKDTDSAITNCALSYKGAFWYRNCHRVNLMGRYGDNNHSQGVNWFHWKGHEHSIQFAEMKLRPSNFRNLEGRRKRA

[3] = molecular target: T1, Fg domain of human tenascin-R (amino …); experiment: BLI; biotinylated FN domain of RPTPζ (250 nM) immobilised on streptavidin tips; Fg domain in solution; room temperature; 150 mM NaCl, 10 mM Na-Hepes pH 7.5, 1 mg/ml BSA, 0.02% Tween-20, 5 mM EDTA; KD from the signal at equilibrium
[4] = molecular target: T2, Fg domain of human tenascin-C (amino …); experiment: as above
[5] = molecular target: T3, CA-FN domains of human RPTPζ (amino acid residues 34-410) fused to human IgG1 Fc, purified (human, UniProt P23471 34-410); experiment: AlphaScreen or HTRF; competition format: biotinylated human TNC(Fg) (5 nM) on streptavidin donor beads, purified RPTPζ(CA-FN)-Fc (0.5 nM) on protein A acceptor beads, untagged Fg domains at varying concentrations; room temperature; one-site competition fit
T3 construct: RPTPζ, human, carbonic anhydrase-like and FN domains (CA-FN), residues 34-410; also called RPTPζ(CA-FN); IgG Fc fusion of RPTPζ(CA-FN)

[6] = molecular target: T4, Fg domain of human tenascin-C (human, UniProt P24821 1975-2201); experiment: BLI; biotinylated RPTPζ(FN) on streptavidin tips, Fg domain as analyte; room temperature, 150 mM NaCl, 10 mM Na-Hepes pH 7.5, 1 mg/ml BSA, 0.02% Tween-20, 5 mM CaCl2; dose-response analysis of the signal at equilibrium
T4 construct: C-terminal fibrinogen-like (Fg) domain of human tenascin-C, amino acid residues 1975-2201; also called HTNC(Fg); TNC(Fg); source: E. coli Origami 2(DE3), purified (Ni Sepharose, HRV 3C cleavage, HiTrap Heparin, Superdex 200)
T4 sequence (looked up): T2 sequence (looked up)

[7] = molecular target: T5, Fg domain of human tenascin-R (human, UniProt Q92752 1129-1358); experiment: as above
T5 construct: C-terminal fibrinogen-like (Fg) domain of human tenascin-R, amino acid residues 1129-1358; also called HTNR(Fg); TNR(Fg); source: E. coli Origami 2(DE3), purified (Ni Sepharose, HRV 3C cleavage, HiTrap Heparin, Superdex 200)
T5 sequence (looked up): T1 sequence (looked up)

[8] = molecular target: T4, Fg domain of human tenascin-C; experiment: BLI; biotinylated RPTPζ(FN) on streptavidin tips, Fg domain as analyte; room temperature, 150 mM NaCl, 10 mM Na-Hepes pH 7.5, 1 mg/ml BSA, 0.02% Tween-20, 5 mM CaCl2; kinetic analysis, sensorgrams fitted to a 1:1 binding model
[9] = molecular target: T5, Fg domain of human tenascin-R; experiment: as above
[10] = molecular target: T6, CA-FN domains of human RPTPζ fused to human IgG1 Fc (human, UniProt P23471 34-410); experiment: AlphaScreen or HTRF; competition: RPTPζ(CA-FN)-Fc (0.5 nM) on protein A acceptor beads, biotinylated TNC(Fg) (5 nM) on streptavidin donor beads, untagged Fg domain as inhibitor in a dilution series; room temperature; one-site competition fit
T6 construct: carbonic anhydrase-like and fibronectin type III (CA-FN) domains of human RPTPζ, amino acid residues 34-410; also called RPTPζ(CA-FN)-Fc; RPTPζ(CA-FN)

B1: biotinylated FN domain of human RPTPζ (domain or fragment)
chain: not shown
modifications: biotin (EZ-Link NHS-PEG4-Biotin, 1:1 molar ratio)
Kd [1]: 112 nM
koff [1]: > 0.01 s⁻¹
Kd [2]: 187 nM
koff [2]: > 0.01 s⁻¹
Kd [3]: 712 nM
Kd [4]: 9900 nM

B2: biotinylated Fg domain of human tenascin-C with a cysteine residue added at the N-terminus (domain or fragment)
chain: CGLLYPFPKDCSQAMLNGDTTSGLYTIYLNGDKAEALEVFCDMTSDGGGWIVFLRRKNGRENFYQNWKAYAAGFGDRREEFWLGLDNLNKITAQGQYELRVDLRDHGETAFAVYDKFSVGDAKTRYKLKVEGYSGTAGDSMAYHNGRSFSTFDKDTDSAITNCALSYKGAFWYRNCHRVNLMGRYGDNNHSQGVNWFHWKGHEHSIQFAEMKLRPSNFRNLEGRRKRA
modifications: biotin (EZ-Link Maleimide-PEG2-Biotin) on the added N-terminal cysteine
notes: cysteine residue added at the N-terminus of the Fg domain by site-directed mutagenesis; tenascin-C (TNC), human, fibrinogen-like (Fg) domain, residues 1975-2201; also called biotinylated human TNC(Fg); biotinylated TNC(Fg); source: E. coli Origami 2(DE3), purified, biotinylated, then gel filtration
binding result [5]: binds

B3: biotinylated FN domain of human RPTPζ (domain or fragment)
chain: not shown
modifications: biotin (EZ-Link NHS-PEG4-Biotin, 1:1 molar ratio)
Kd [6]: 242 nM and 191 nM and 127 nM and 187 nM
Kd [7]: 114 nM and 117 nM and 113 nM and 104 nM
Kd [8]: 150 nM and 170 nM and 189 nM and 173 nM
Kd [9]: 79 nM and 80 nM and 78 nM

B4: biotinylated Fg domain of human tenascin-C with an added N-terminal cysteine (domain or fragment)
chain: B2 chain
modifications: biotin (EZ-Link Maleimide-PEG2-Biotin) on the cysteine added at the N-terminus
notes: a cysteine residue added at the N-terminus of the Fg domain by site-directed mutagenesis; C-terminal fibrinogen-like (Fg) domain of human tenascin-C, amino acid residues 1975-2201; also called biotin-HTNC(Fg); biotinylated human TNC(Fg); source: E. coli Origami 2(DE3), purified, biotinylated, then gel filtration
binding result [10]: binds
